Laboratory results from publication PMC4139611, “Differential expression of Homeobox C11 protein in water buffalo Bubalus bubalis and its putative 3D structure”.

Target: HOXC11 (His-HOXC11) (Bubalus bubalis (water buffalo), UniProt W5XU26 1-304)
Experiment: EMSA; supershift with anti-HOXC11 antibody; 10 mM Tris pH 7.9, 1 mM DTT, 0.1 mM EDTA, 50 mM KCl, 5% glycerol, 30 min at 4 °C; 5% native PAGE in 1x TBE at room temperature
Settings: protein: recombinant; tags: N-terminal His6 with thrombin site; label: 32P (alpha-32P-dCTP); 5' overhang 4 nt (GATC) at both ends

Chain of HOXC11 (His-HOXC11) (W5XU26 entry or part of it): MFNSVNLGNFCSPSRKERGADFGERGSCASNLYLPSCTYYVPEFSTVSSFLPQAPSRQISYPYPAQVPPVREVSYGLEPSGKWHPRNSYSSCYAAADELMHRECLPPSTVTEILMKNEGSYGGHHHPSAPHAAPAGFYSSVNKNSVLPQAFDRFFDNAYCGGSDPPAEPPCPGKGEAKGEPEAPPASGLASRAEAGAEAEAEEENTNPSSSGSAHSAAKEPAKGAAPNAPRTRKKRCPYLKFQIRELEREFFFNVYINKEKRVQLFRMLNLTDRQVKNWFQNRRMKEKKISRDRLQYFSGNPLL

B1: CE-LPH1 probe (LPH promoter) (dsDNA)
DNA 1: GATCTTTTACAACCTCAGTTG
DNA 2: GATCCAACTGAGGTTGTAAAA
  binding result: binds
